{"source": "patent US20250290123", "key": {"[1]": {"test_system": "LigAT_C-RNAseH-Ecoli (ATCV-1 ligase fused at C-terminus to inactive E. coli RNase H) (Acanthocystis turfacea chlorella virus 1 / Escherichia coli)", "details": "CE ligation assay"}, "[2]": {"test_system": "LigAT-HU (control ligase)", "details": "CE ligation assay, control buffer, 2 h 37 C"}, "[3]": {"test_system": "LigAT_C-RNAseH-Sto (Acanthocystis turfacea chlorella virus 1 / Sulfolobus tokodaii)", "details": "5'-phosphate; Buffer 2B, 37-55 C, 2 h"}, "[4]": {"test_system": "LigAT-HU (control ligase)", "details": "5'-phosphate; control buffer 37 C; less than 5% at 55 C"}, "[5]": {"test_system": "LigAT_C-RNAseH-Ecoli (ATCV-1 ligase fused at C-terminus to inactive E. coli RNase H) (Acanthocystis turfacea chlorella virus 1 / Escherichia coli)", "details": "5'-phosphate; Buffer 1B, 37-55 C, 2 h, 1 uM ligase"}}, "note": "Where two headings read alike, the source gives them in different places.", "data": [{"substance": "AA junction RNA template with DNA substrates A and pA", "values": [{"measurement": "activity (% ligation yield)", "setting": "[1]; 5'-phosphate on SEQ 43, matched junction", "result": 37}]}, {"substance": "AC junction template and substrates", "values": [{"measurement": "activity (% ligation yield)", "setting": "[1]", "result": 36}]}, {"substance": "AG junction template and substrates", "values": [{"measurement": "activity (% ligation yield)", "setting": "[2]", "result": "< 10"}, {"measurement": "activity (% ligation yield)", "setting": "[1]", "result": 23}]}, {"substance": "AT junction template and substrates", "values": [{"measurement": "activity (% ligation yield)", "setting": "[1]", "result": 37}]}, {"substance": "CA junction template and substrates", "values": [{"measurement": "activity (% ligation yield)", "setting": "[1]", "result": 39}]}, {"substance": "CC junction template and substrates", "values": [{"measurement": "activity (% ligation yield)", "setting": "[2]", "result": "< 10"}, {"measurement": "activity (% ligation yield)", "setting": "[1]", "result": 33}]}, {"substance": "CG junction template and substrates", "values": [{"measurement": "activity (% ligation yield)", "setting": "[2]", "result": "< 10"}, {"measurement": "activity (% ligation yield)", "setting": "[1]", "result": 17}]}, {"substance": "CT junction template and substrates", "values": [{"measurement": "activity (% ligation yield)", "setting": "[1]", "result": 43}]}, {"substance": "DNA padlock probes annealed to RNA template", "values": [{"measurement": "activity (% ligated product)", "setting": "[3]", "result": "> 75"}, {"measurement": "activity (% ligated product)", "setting": "[4]", "result": 25}, {"measurement": "activity (% ligated product)", "setting": "[5]", "result": "> 75"}]}, {"substance": "GA junction template and substrates", "values": [{"measurement": "activity (% ligation yield)", "setting": "[1]", "result": 48}]}, {"substance": "GC junction template and substrates", "values": [{"measurement": "activity (% ligation yield)", "setting": "[2]", "result": "< 10"}, {"measurement": "activity (% ligation yield)", "setting": "[1]", "result": 35}]}, {"substance": "GG junction template and substrates", "values": [{"measurement": "activity (% ligation yield)", "setting": "[2]", "result": "< 10"}, {"measurement": "activity (% ligation yield)", "setting": "[1]", "result": 27}]}, {"substance": "GT junction template and substrates", "values": [{"measurement": "activity (% ligation yield)", "setting": "[1]", "result": 47}]}, {"substance": "TA junction template and substrates", "values": [{"measurement": "activity (% ligation yield)", "setting": "[1]", "result": 45}]}, {"substance": "TC junction template and substrates", "values": [{"measurement": "activity (% ligation yield)", "setting": "[1]", "result": 49}]}, {"substance": "TG junction template and substrates", "values": [{"measurement": "activity (% ligation yield)", "setting": "[1]", "result": 40}]}, {"substance": "TT junction template and substrates", "values": [{"measurement": "activity (% ligation yield)", "setting": "[1]", "result": 50}]}]}
